Data reported in publication doi:10.1101/2024.12.31.629942 (bioRxiv, 2024).
Where a chain is given by its changes, count along the chain named. Names may count otherwise.

Legend:
FtsZ^D212N (untagged) = molecular target: T1, FtsZ^D212N (untagged) (E. coli, UniProt P0A9A6 1-383, D212N); test: pull-down
T1 sequence: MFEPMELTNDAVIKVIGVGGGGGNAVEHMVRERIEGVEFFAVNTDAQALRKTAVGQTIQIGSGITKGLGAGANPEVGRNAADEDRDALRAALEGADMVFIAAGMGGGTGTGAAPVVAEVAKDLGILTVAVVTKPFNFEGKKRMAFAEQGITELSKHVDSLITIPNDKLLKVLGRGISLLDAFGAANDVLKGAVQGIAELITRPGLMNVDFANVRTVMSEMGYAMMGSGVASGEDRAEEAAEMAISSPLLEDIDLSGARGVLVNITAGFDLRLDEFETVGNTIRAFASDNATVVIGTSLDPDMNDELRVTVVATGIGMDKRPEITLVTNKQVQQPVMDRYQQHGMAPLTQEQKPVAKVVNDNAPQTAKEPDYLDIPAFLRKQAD

[1] = molecular target: T2, FtsZ (wild-type, untagged) (E. coli, UniProt P0A9A6 1-383); test: co-sedimentation
T2 sequence: T1 sequence with N212D

[2] = molecular target: the molecule itself; test: sedimentation of polymers

B1: H-SUMO-ZapA (natural protein)
chain: MSAQPVDIQIFGRSLRVNCPPDQRDALNQAADDLNQRLQDLKERTRVTNTEQLVFIAALNISYELAQEKAKTRDYAASMEQRIRMLQQTIEQALLEQGRITEKTNQNFE
B1: binds (FtsZ^D212N (untagged)).

B2: ZapA (untagged) (natural protein)
chain: B1 chain
B2: binds [1].

B3: FtsZ^F2A (untagged) (natural protein)
chain: T1 sequence with F2A, N212D
B3: binds [2].
